Target: Murine PD-L1 (murine) (UniProt Q9EP73)
Sequence of UniProt Q9EP73 (Q9EP73 19-290): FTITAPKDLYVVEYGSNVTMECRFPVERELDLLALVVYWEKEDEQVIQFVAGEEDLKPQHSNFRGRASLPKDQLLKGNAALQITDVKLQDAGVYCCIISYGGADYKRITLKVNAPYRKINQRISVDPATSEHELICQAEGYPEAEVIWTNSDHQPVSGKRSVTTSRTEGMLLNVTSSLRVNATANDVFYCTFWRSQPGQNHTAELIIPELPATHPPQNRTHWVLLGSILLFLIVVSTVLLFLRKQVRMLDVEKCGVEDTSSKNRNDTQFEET

T cell-induced lysis of EG7-PD-L1 target cells in co-culture with PD-1-CD28 fusion receptor transduced OVA-specific CD8+ T cells: 3 fold
Substance: PD-1-CD28 fusion receptor

Reference: PMC5374589
